Assay results reported in FireProtDB (doi:10.1016/0022-2836(91)90725-l).

B1: Ribonuclease, P00648 (parent)
chain: MMKMEGIALKKRLSWISVCLLVLVSAAGMLFSTAAKTETSSHKAHTEAQVINTFDGVADYLQTYHKLPDNYITKSEAQALGWVASKGNLADVAPGKSIGGDIFSNREGKLPGKSGRTWREADINYTSGFRNSDRILYSSDWLIYKTTDHYQTFTKIR

Variants of: B1
Details: Bacillus amyloliquefaciens; pH 6.3; 25 °C; Urea; Fluorescence; MES 1.00 M; NaCl 613 mM; reversible: yes; structure 1BNI; whole UniProt chain shown

MMKMEGIALKKRLSWISVCLLVLVSAAGMLFSTAAKTETSSHKAHTEAQVINTFDGVADALQTAHKLPDNYITKSEAQALGWVASKGNLADVAPGKSIGGDIFSNREGKLPGKSGRTWREADINYTSGFRNSDRILYSSDWLIYKTTDHYQTFTKIR
ddG of mutation (higher = less stable): 4.76 kcal/mol
denaturant m value: 2.22 kcal/mol/M
denaturant midpoint (higher = more stable): 2.43 M
unfolding free energy: 5.39 kcal/mol

MMKMEGIALKKRLSWISVCLLVLVSAAGMLFSTAAKTETSSHKAHTEAQVINTFDGVADFLQTFHKLPDNYITKSEAQALGWVASKGNLADVAPGKSIGGDIFSNREGKLPGKSGRTWREADINYTSGFRNSDRILYSSDWLIYKTTDHYQTFTKIR
ddG of mutation (higher = less stable): 1.23 kcal/mol
denaturant m value: 2.08 kcal/mol/M
denaturant midpoint (higher = more stable): 4.29 M
unfolding free energy: 8.92 kcal/mol

MMKMEGIALKKRLSWISVCLLVLVSAAGMLFSTAAKTETSSHKAHTEAQVINTFDGVADALQTYHKLPDNYITKSEAQALGWVASKGNLADVAPGKSIGGDIFSNREGKLPGKSGRTWREADINYTSGFRNSDRILYSSDWLIYKTTDHYQTFTKIR
ddG of mutation (higher = less stable): 3.69 kcal/mol
denaturant m value: 2.26 kcal/mol/M
denaturant midpoint (higher = more stable): 2.86 M
unfolding free energy: 6.46 kcal/mol

MMKMEGIALKKRLSWISVCLLVLVSAAGMLFSTAAKTETSSHKAHTEAQVINTFDGVADFLQTYHKLPDNYITKSEAQALGWVASKGNLADVAPGKSIGGDIFSNREGKLPGKSGRTWREADINYTSGFRNSDRILYSSDWLIYKTTDHYQTFTKIR
ddG of mutation (higher = less stable): 0.63 kcal/mol
denaturant m value: 2.17 kcal/mol/M
denaturant midpoint (higher = more stable): 4.38 M
unfolding free energy: 9.52 kcal/mol

MMKMEGIALKKRLSWISVCLLVLVSAAGMLFSTAAKTETSSHKAHTEAQVINTFDGVADYLQTFHKLPDNYITKSEAQALGWVASKGNLADVAPGKSIGGDIFSNREGKLPGKSGRTWREADINYTSGFRNSDRILYSSDWLIYKTTDHYQTFTKIR
ddG of mutation (higher = less stable): 0.58 kcal/mol
denaturant m value: 2.16 kcal/mol/M
denaturant midpoint (higher = more stable): 4.43 M
unfolding free energy: 9.57 kcal/mol
